Experimental data published in US20090099029.

T1: Bovine, dephosphorylated, Myelin Basic Protein (MBP), P02687
T1 chain: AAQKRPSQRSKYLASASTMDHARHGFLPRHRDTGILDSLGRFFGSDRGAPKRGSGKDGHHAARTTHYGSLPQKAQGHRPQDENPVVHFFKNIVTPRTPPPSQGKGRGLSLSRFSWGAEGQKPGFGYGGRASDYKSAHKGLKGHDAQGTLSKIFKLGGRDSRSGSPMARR

B1: ROCK2 (protein)
chain: MSRPPPTGKMPGAPETAPGDGAGASRQRKLEALIRDPRSPINVESLLDGLNSLVLDLDFPALRKNKNIDNFLNRYEKIVKKIRGLQMKAEDYDVVKVIGRGAFGEVQLVRHKASQKVYAMKLLSKFEMIKRSDSAFFWEERDIMAFANSPWVVQLFYAFQDDRYLYMVMEYMPGGDLVNLMSNYDVPEKWAKFYTAEVVLALDAIHSMGLIHRDVKPDNMLLDKHGHLKLADFGTCMKMDETGMVHCDTAVGTPDYISPEVLKSQGGDGFYGRECDWWSVGVFLYEMLVGDTPFYADSLVGTYSKIMDHKNSLCFPEDAEISKHAKNLICAFLTDREVRLGRNGVEEIRQHPFFKNDQWHWDNIRETAAPVVPELSSDIDSSNFDDIEDDKGDVETFPIPKAFVGNQLPFIGFTYYRENLLLSDSPSCRETDSIQSRKNEESQEIQKKLYTLEEHLSNEMQAKEELEQKCKSVNTRLEKTAKELEEEITLRKSVESALRQLEREKALLQHKNAEYQRKADHEADKKRNLENDVNSLKDQLEDLKKRNQNSQI
B2: PRKD1(PKD) (protein)
chain: MSAPPVLRPPSPLLPVAAAAAAAAAALVPGSGPGPAPFLAPVAAPVGGISFHLQIGLSREPVLLLQDSSGDYSLAHVREMACSIVDQKFPECGFYGMYDKILLFRHDPTSENILQLVKAASDIQEGDLIEVVLSASATFEDFQIRPHALFVHSYRAPAFCDHCGEMLWGLVRQGLKCEGCGLNYHKRCAFKIPNNCSGVRRRRLSNVSLTGVSTIRTSSAELSTSAPDEPLLQKSPSESFIGREKRSNSQSYIGRPIHLDKILMSKVKVPHTFVIHSYTRPTVCQYCKKLLKGLFRQGLQCKDCRFNCHKRCAPKVPNNCLGEVTINGDLLSPGAESDVVMEEGSDDNDSERNSGLMDDMEEAMVQDAEMAMAECQNDSGEMQDPDPDHEDANRTISPSTSNNIPLMRVVQSVKHTKRKSSTVMKEGWMVHYTSKDTLRKRHYWRLDSKCITLFQNDTGSRYYKEIPLSEILSLEPVKTSALIPNGANPHCFEITTANVVYYVGENVVNPSSPSPNNSVLTSGVGADVARMWEIAIQHALMPVIPKGSSVGTGTNLHRDISVSISVSNCQIQENVDISTVYQIFPDEVLGSGQFGIVYGGKHRKTGRDVAIKIIDKLRFPTKQESQLRNEVAILQNLHHPGVVNLECMFETPERVFVVMEKLHGDMLEMILSSEKGRLPEHITKFLITQILVALRHLHFKNIVHCDLKPENVLLASADPFPQVKLCDFGFARIIGEKSFRRSVVGTPAYLAPEVLRNKGYNRSLDMWSVGVIIYVSLSGTFPFNEDEDIHDQIQNAAFMYPPNPWKEISHEAIDLINNLLQVKMRKRYSVDKTLSHPWLQDYQTWLDLRELECKIGERYITHESDDLRWEKYAGEQGLQYPTHLINPSASHSDTPETEETEMKALGERVSIL
B3: PRKCN(PKD3) (protein)
chain: MSANNSPPSAQKSVLPTAIPAVLPAASPCSSPKTGLSARLSNGSFSAPSLTNSRGSVHTVSFLLQIGLTRESVTIEAQELSLSAVKDLVCSIVYQKFPECGFFGMYDKILLFRHDMNSENILQLITSADEIHEGDLVEVVLSALATVEDFQIRPHTLYVHSYKAPTFCDYCGEMLWGLVRQGLKCEGCGLNYHKRCAFKIPNNCSGVRKRRLSNVSLPGPGLSVPRPLQPEYVALPSEESHVHQEPSKRIPSWSGRPIWMEKMVMCRVKVPHTFAVHSYTRPTICQYCKRLLKGLFRQGMQCKDCKFNCHKRCASKVPRDCLGEVTFNGEPSSLGTDTDIPMDIDNNDINSDSSRGLDDTEEPSPPEDKMFFLDPSDLDVERDEEAVKTISPSTSNNIPLMRVVQSIKHTKRKSSTMVKEGWMVHYTSRDNLRKRHYWRLDSKCLTLFQNESGSKYYKEIPLSEILRISSPRDFTNISQGSNPHCFEIITDTMVYFVGENNGDSSHNPVLAATGVGLDVAQSWEKAIRQALMPVTPQASVCTSPGQGKDHKDLSTSISVSNCQIQENVDISTVYQIFADEVLGSGQFGIVYGGKHRKTGRDVAIKVIDKMRFPTKQESQLRNEVAILQNLHHPGIVNLECMFETPERVFVVMEKLHGDMLEMILSSEKSRLPERITKFMVTQILVALRNLHFKNIVHCDLKPENVLLASAEPFPQVKLCDFGFARIIGEKSFRRSVVGTPAYLAPEVLRSKGYNRSLDMWSVGVIIYVSLSGTFPFNEDEDINDQIQNAAFMYPPNPWREISGEAIDLINNLLQVKMRKRYSVDKSLSHPWLQDYQTWLDLREFETRIGERYITHESDDARWEIHAYTHNLVYPKHFIMAPNPDDMEEDP
B4: PRKX (protein)
chain: MEAPGLAQAAAAESDSRKVAEETPDGAPALCPSPEALSPEPPVYSLQDFDTLATVGTGTFGRVHLVKEKTAKHFFALKVMSIPDVIRLKQEQHVHNEKSVLKEVSHPFLIRLFWTWHDERFLYMLMEYVPGGELFSYLRNRGRFSSTTGLFYSAEIICAIEYLHSKEIVYRDLKPENILLDRDGHIKLTDFGFAKKLVDRTWTLCGTPEYLAPEVIQSKGHGRAVDWWALGILIFEMLSGFPPFFDDNPFGIYQKILAGKIDFPRHLDFHVKDLIKKLLVVDRTRRLGNMKNGANDVKHHRWFRSVDWEAVPQRKLKPPIVPKIAGDGDTSNFETYPENDWDTAAPVPQKDLEIFKNF
B5: EPHB3 (protein)
chain: CLRKQRHGSDSEYTEKLQQYIAPGMKVYIDPFTYEDPNEAVREFAKEIDVSCVKIEEVIGAGEFGEVCRGRLKQPGRREVFVAIKTLKVGYTERQRRDFLSEASIMGQFDHPNIIRLEGVVTKSRPVMILTEFMENCALDSFLRLNDGQFTVIQLVGMLRGIAAGMKYLSEMNYVHRDLAARNILVNSNLVCKVSDFGLSRFLEDDPSDPTYTSSLGGKIPIRWTAPEAIAYRKFTSASDVWSYGIVMWEVMSYGERPYWDMSNQDVINAVEQDYRLPPPMDCPTALHQLMLDCWVRDRNLRPKFSQIVNTLDKLIRNAASLKVIASAQSGMSQPLLDRTVPDYTTFTTVGDWLDAIKMGRYKESFVSAGFASFDLVAQMTAEDLLRIGVTLAGHQKKILSSIQDMRLQMNQTLPVQV
B6: PRKD2(PKD2) (protein)
chain: MATAPSYPAGLPGSPGPGSPPPPGGLELQSPPPLLPQIPAPGSGVSFHIQIGLTREFVLLPAASELAHVKQLACSIVDQKFPECGFYGLYDKILLFKHDPTSANLLQLVRSSGDIQEGDLVEVVLSASATFEDFQIRPHALTVHSYRAPAFCDHCGEMLFGLVRQGLKCDGCGLNYHKRCAFSIPNNCSGARKRRLSSTSLASGHSVRLGTSESLPCTAEELSRSTTELLPRRPPSSSSSSSASSYTGRPIELDKMLLSKVKVPHTFLIHSYTRPTVCQACKKLLKGLFRQGLQCKDCKFNCHKRCATRVPNDCLGEALINGDVPMEEATDFSEADKSALMDESEDSGVIPGSHSENALHASEEEEGEGGKAQSSLGYIPLMRVVQSVRHTTRKSSTTLREGWVVHYSNKDTLRKRHYWRLDCKCITLFQNNTTNRYYKEIPLSEILTVESAQNFSLVPPGTNPHCFEIVTANATYFVGEMPGGTPGGPSGQGAEAARGWETAIRQALMPVILQDAPSAPGHAPHRQASLSISVSNSQIQENVDIATVYQIFPDEVLGSGQFGVVYGGKHRKTGRDVAVKVIDKLRFPTKQESQLRNEVAILQSLRHPGIVNLECMFETPEKVFVVMEKLHGDMLEMILSSEKGRLPERLTKFLITQILVALRHLHFKNIVHCDLKPENVLLASADPFPQVKLCDFGFARIIGEKSFRRSVVGTPAYLAPEVLLNQGYNRSLDMWSVGVIMYVSLSGTFPFNEDEDINDQIQNAAFMYPASPWSHISAGAIDLINNLLQVKMRKRYSVDKSLSHPWLQEYQTWLDLRELEGKMGERYITHESDDARWEQFAAEHPLPGSGLPTDRDLGGACPPQDHDMQGLAERISVL
B7: PRKCQ (protein)
chain: MSPFLRIGLSNFDCGSCQSCQGEAVNPYCAVLVKEYVESENGQMYIQKKPTMYPPWDSTFDAHINKGRVMQIIVKGKNVDLISETTVELYSLAERCRKNNGKTEIWLELKPQGRMLMNARYFLEMSDTKDMNEFETEGFFALHQRRGAIKQAKVHHVKCHEFTATFFPQPTFCSVCHEFVWGLNKQGYQCRQCNAAIHKKCIDKVIAKCTGSAINSRETMFHKERFKIDMPHRFKVYNYKSPTFCEHCGTLLWGLARQGLKCDACGMNVHHRCQTKVANLCGINQKLMAEALAMIESTQQARCLRDTEQIFREGPVEIGLPCSIKNEARPPCLPTPGKREPQGISWESPLDEVDKMCHLPEPELNKERPSLQIKLKIEDFILHKMLGKGSFGKVFLAEFKKTNQFFAIKALKKDVVLMDDDVECTMVEKRVLSLAWEHPFLTHMFCTFQTKENLFFVMEYLNGGDLMYHIQSCHKFDLSRATFYAAEIILGLQFLHSKGIVYRDLKLDNILLDKDGHIKIADFGMCKENMLGDAKTNTFCGTPDYIAPEILLGQKYNHSVDWWSFGVLLYEMLIGQSPFHGQDEEELFHSIRMDNPFYPRWLEKEAKDLLVKLFVREPEKRLGVRGDIRQHPLFREINWEELERKEIDPPFRPKVKSPFDCSNFDKEFLNEKPRLSFADRALINSMDQNMFRNFSFMNPGMERLIS
B8: ROCK1 (protein)
chain: MSTGDSFETRFEKMDNLLRDPKSEVNSDCLLDGLDALVYDLDFPALRKNKNIDNFLSRYKDTINKIRDLRMKAEDYEVVKVIGRGAFGEVQLVRHKSTRKVYAMKLLSKFEMIKRSDSAFFWEERDIMAFANSPWVVQLFYAFQDDRYLYMVMEYMPGGDLVNLMSNYDVPEKWARFYTAEVVLALDAIHSMGFIHRDVKPDNMLLDKSGHLKLADFGTCMKMNKEGMVRCDTAVGTPDYISPEVLKSQGGDGYYGRECDWWSVGVFLYEMLVGDTPFYADSLVGTYSKIMNHKNSLTFPDDNDISKEAKNLICAFLTDREVRLGRNGVEEIKRHLFFKNDQWAWETLRDTVAPVVPDLSSDIDTSNFDDLEEDKGEEETFPIPKAFVGNQLPFVGFTYYSNRRYLSSANPNDNRTSSNADKSLQESLQKTIYKLEEQLHNEMQLKDEMEQKCRTSNIKLDKIMKELDEEGNQRRNLESTVSQIEKEKMLLQHRINEYQRKAEQENEKRRNVENEVSTLKDQLEDLKKVSQNSQL
B9: PRKCZ (protein)
chain: MPSRTGPKMEGSGGRVRLKAHYGGDIFITSVDAATTFEELCEEVRDMCRLHQQHPLTLKWVDSEGDPCTVSSQMELEEAFRLARQCRDEGLIIHVFPSTPEQPGLPCPGEDKSIYRRGARRWRKLYRANGHLFQAKRFNRRAYCGQCSERIWGLARQGYRCINCKLLVHKRCHGLVPLTCRKHMDSVMPSQEPPVDDKNEDADLPSEETDGIAYISSSRKHDSIKDDSEDLKPVIDGMDGIKISQGLGLQDFDLIRVIGRGSYAKVLLVRLKKNDQIYAMKVVKKELVHDDEDIDWVQTEKHVFEQASSNPFLVGLHSCFQTTSRLFLVIEYVNGGDLMFHMQRQRKLPEEHARFYAAEICIALNFLHERGIIYRDLKLDNVLLDADGHIKLTDYGMCKEGLGPGDTTSTFCGTPNYIAPEILRGEEYGFSVDWWALGVLMFEMMAGRSPFDIITDNPDMNTEDYLFQVILEKPIRIPRFLSVKASHVLKGFLNKDPKERLGCRPQTGFSDIKSHAFFRSIDWDLLEKKQALPPFQPQITDDYGLDNFDTQFTSEPVQLTPDDEDAIKRIDQSEFEGFEYINPLLLSTEESV

Molecular target: T1, Bovine, dephosphorylated, Myelin Basic …

| Protein | MBP Kinase Activity |
| --- | --- |
| B1 | Strong |
| B2 | Weak |
| B3 | Weak |
| B4 | Negative |
| B5 | Strong |
| B6 | Strong |
| B7 | Strong |
| B8 | Strong |
| B9 | Strong |
